Results published in the supplement of paper PMC9233669.
Variants at the floor of the assay were thinned out.

Legend:
biotinyl-Phe-oxazolone = assay: self-aminoacylation, catalytic enhancement (BFO) (fold over background); higher = more active; k-Seq, kA / k0A0; sequences stand for … in GGGAAUGGAUCCACAUCUACGAAUUC…UUCACUGCAGACUUGACGAAGCUG
Procedure, shortened: (§1)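 Mutagenized RNA pools (0.43 μM; 21-nt variable region) were treated with 2–1250 μM of each biotinyl-aminoacyl-oxazolone. Conditions were 50 μL HEPES/NaCl/KCl/MgCl2/CaCl2 buffer, 5% acetonitrile, pH 6.9–7.0, room temperature, 90 minutes. Catalytic enhancement, the median kA relative to the uncatalyzed rate, was derived from streptavidin capture, qPCR and Illumina sequencing.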

biotinyl-Ile-oxazolone = assay: self-aminoacylation, catalytic enhancement (BIO) (fold over background); higher = more active; k-Seq, kA / k0A0; sequences stand for … in GGGAAUGGAUCCACAUCUACGAAUUC…UUCACUGCAGACUUGACGAAGCUG
Procedure, shortened: as §1

biotinyl-Met-oxazolone = assay: self-aminoacylation, catalytic enhancement (BMO) (fold over background); higher = more active; k-Seq, kA / k0A0; sequences stand for … in GGGAAUGGAUCCACAUCUACGAAUUC…UUCACUGCAGACUUGACGAAGCUG
Procedure, shortened: as §1

biotinyl-Val-oxazolone = assay: self-aminoacylation, catalytic enhancement (BVO) (fold over background); higher = more active; k-Seq, kA / k0A0; sequences stand for … in GGGAAUGGAUCCACAUCUACGAAUUC…UUCACUGCAGACUUGACGAAGCUG
Procedure, shortened: as §1

biotinyl-Leu-oxazolone = assay: self-aminoacylation, catalytic enhancement (BLO) (fold over background); higher = more active; k-Seq, kA / k0A0; sequences stand for … in GGGAAUGGAUCCACAUCUACGAAUUC…UUCACUGCAGACUUGACGAAGCUG
Procedure, shortened: as §1

biotinyl-Trp-oxazolone = assay: self-aminoacylation, catalytic enhancement (BWO) (fold over background); higher = more active; k-Seq, kA / k0A0; sequences stand for … in GGGAAUGGAUCCACAUCUACGAAUUC…UUCACUGCAGACUUGACGAAGCUG
Procedure, shortened: as §1

| Sequence | self-aminoacylation (biotinyl-Phe-oxazolone) | self-aminoacylation (biotinyl-Ile-oxazolone) | self-aminoacylation (biotinyl-Met-oxazolone) | self-aminoacylation (biotinyl-Val-oxazolone) | self-aminoacylation (biotinyl-Leu-oxazolone) | self-aminoacylation (biotinyl-Trp-oxazolone) |
| --- | --- | --- | --- | --- | --- | --- |
| AUUCUCCUCGGUCAUCGGGUG [Fam2.2 aminoacylation ribozyme variant] | 108 | 8.05 | 11.3 | 7.28 | 15.5 | 11.6 |
| AUUACCCUGGCCAUCCAGUGA [Fam2.1 aminoacylation ribozyme variant] | 35.9 | 4.38 | 7.34 | 4.01 | 8.23 | 7.75 |
| AUUACCCUGGUAAUCGAGAGA [Fam2.1 aminoacylation ribozyme variant] | 0.58 | 1.02 | 0.722 | 0.78 | 0.723 | 0.573 |
| AUUACACAGGUCAUCGAGUGA [Fam2.1 aminoacylation ribozyme variant] | 8.1 | 2.5 | 3.66 | 2.44 | 3.37 | 5.05 |
| AUUACCCUGGUCAUCGCGCGA [Fam2.1 aminoacylation ribozyme variant] | 36.7 | 5.07 | 4.45 | 5.24 | 6.23 | 3.18 |
| AUUCGGCUAGGUCAUCGGGUG [Fam2.2 aminoacylation ribozyme variant] | 24.4 | 3.06 | 3.87 | 3.7 | 4.58 | 4.77 |
| AAGUGUGCUAAUAGUCGCACG [Fam3.1 aminoacylation ribozyme variant] | 2.38 | 1.19 | 1.6 | 1.04 | 1.5 | 2.16 |
| AUUACCCUGGUAAUCUAGUGA [Fam2.1 aminoacylation ribozyme variant] | 86.4 | 5.57 | 13 | 5.92 | 12.4 | 15.9 |
| AUUACCCGCGUCAUCGAGUGA [Fam2.1 aminoacylation ribozyme variant] | 24.9 | 2.37 | 4.55 | 2.8 | 4.6 | 5.55 |
| AUUACCCUGGUAACCGAGUGA [Fam2.1 aminoacylation ribozyme variant] | 96.5 | 5.22 | 12.5 | 5.58 | 12.2 | 14.2 |
| AUACCUCAAACAAUCGGUCUG [Fam1A.1 aminoacylation ribozyme variant] | 4.92 | 0.977 | 0.919 | 0.92 | 0.934 | 1.52 |
| AAGUUUGCUUAUAGUCGCGAG [Fam3.1 aminoacylation ribozyme variant] | 0.935 | 1.01 | 1.07 | 1.03 | 0.821 | 1.53 |
| AUUCCCCUAGGUCAACGGGUG [Fam2.2 aminoacylation ribozyme variant] | 84.2 | 6.94 | 11.5 | 6.99 | 15.4 | 11.5 |
| AUUACGAUGGUCAUCGAGUGA [Fam2.1 aminoacylation ribozyme variant] | 12.3 | 2.99 | 3.43 | 3.17 | 4.54 | 4.79 |
| AUUACCCUAGUCAUGGAGUGA [Fam2.1 aminoacylation ribozyme variant] | 15.5 | 2.79 | 4.31 | 2.68 | 4.06 | 5.17 |
| AUUGCCCUGGCCAUCGAGUGA [Fam2.1 aminoacylation ribozyme variant] | 25.2 | 2.48 | 3.8 | 2.74 | 4.96 | 4.87 |
| AUAACCCUGGUCUUCGAGUGA [Fam2.1 aminoacylation ribozyme variant] | 17.7 | 2.9 | 5.08 | 2.71 | 5.23 | 6.89 |
| CUCCGUCAAACAAUCGGUCUG [Fam1A.1 aminoacylation ribozyme variant] | 1.97 | 1.07 | 1.02 | 0.973 | 0.889 | 1.29 |
| CUACUUUAGACAAUCGGUCUG [Fam1A.1 aminoacylation ribozyme variant] | 0.65 | 0.77 | 0.847 | 0.826 | 0.7 | 0.518 |
| CUACUUCAAACAAUCGGUUUU [Fam1A.1 aminoacylation ribozyme variant] | 2.35 | 1.31 | 0.931 | 1.26 | 1.1 | 1.44 |
| AAGUUUGCUAAUAGGCGCAAU [Fam3.1 aminoacylation ribozyme variant] | 1.52 | 1.6 | 1.71 | 1.58 | 1.46 | 0.968 |
| CCACACUUCCAGCAAUCGGUC [Fam1B.1 aminoacylation ribozyme variant] | 1.03 | 1.14 | 0.882 | 1.25 | 0.9 | 0.872 |
| AAGUGUGCUAAUAGUCGCAAA [Fam3.1 aminoacylation ribozyme variant] | 2.76 | 1.79 | 2.07 | 1.41 | 1.52 | 1.88 |
| AUUCAUCUAGGUCAGCGGGUG [Fam2.2 aminoacylation ribozyme variant] | 25.3 | 3.25 | 4.17 | 3.23 | 5.56 | 4.36 |
| AUUACCCUGGUCACCGAGUCA [Fam2.1 aminoacylation ribozyme variant] | 0.799 | 1.43 | 1.45 | 1.49 | 1.75 | 1.84 |
| CCACACUUCAGGCAACCGGUC [Fam1B.1 aminoacylation ribozyme variant] | 1.64 | 1.89 | 1.61 | 1.95 | 1.38 | 1.27 |

| Sequence | self-aminoacylation (biotinyl-Phe-oxazolone) | self-aminoacylation (biotinyl-Ile-oxazolone) | self-aminoacylation (biotinyl-Met-oxazolone) | self-aminoacylation (biotinyl-Val-oxazolone) | self-aminoacylation (biotinyl-Leu-oxazolone) | self-aminoacylation (biotinyl-Trp-oxazolone) |
| --- | --- | --- | --- | --- | --- | --- |
| CUACUCCAAACAAUCGGGCUG [Fam1A.1 aminoacylation ribozyme variant] | 1.02 | 1.36 | 1.61 | 1.01 | 1.29 | 1.14 |
| CCAGACUUCAAGCGAUCGGUC [Fam1B.1 aminoacylation ribozyme variant] | 1.63 | 1.36 | 1.17 | 1.8 | 1.83 | 1.82 |
| CUACUUCAAACCAUCCGUCUG [Fam1A.1 aminoacylation ribozyme variant] | 0.573 | 0.891 | 0.891 | 1.14 | 0.721 | 0.802 |
| GCGCACUUCAAGCAAUCGGUC [Fam1B.1 aminoacylation ribozyme variant] | 41.1 | 2.12 | 2.04 | 2.2 | 2.65 | 29.6 |
| CCACUUCAAACAAUCGGUUUG [Fam1A.1 aminoacylation ribozyme variant] | 80.3 | 1.39 | 1.37 | 1.83 | 2.57 | 39.5 |
| AUUACCCUGGUCAUCGUCUGA [Fam2.1 aminoacylation ribozyme variant] | 0.374 | 0.88 | 0.842 | 0.817 | 0.907 | 0.531 |
| AUUACCCUGGUCGACGAGUGA [Fam2.1 aminoacylation ribozyme variant] | 26.4 | 2.86 | 5.53 | 3.33 | 5.32 | 6.05 |
| AUUACCCUGAUCACCGAGUGA [Fam2.1 aminoacylation ribozyme variant] | 42.1 | 3.08 | 7.33 | 3.74 | 7.42 | 6.75 |
| AUUCACAUAAGUCAUCGGGUG [Fam2.2 aminoacylation ribozyme variant] | 95.4 | 7.61 | 11.8 | 6.79 | 18.3 | 12.4 |
| CUACUUAAAACAAUCCGUCUG [Fam1A.1 aminoacylation ribozyme variant] | 0.461 | 0.799 | 0.876 | 0.905 | 0.756 | 0.547 |
| AUUCACCUAGGUCAUCAAGUG [Fam2.2 aminoacylation ribozyme variant] | 1.21 | 0.747 | 0.662 | 0.711 | 0.756 | 0.347 |
| AAGUUUGUUAAUUGUCGCAAG [Fam3.1 aminoacylation ribozyme variant] | 0.994 | 1.09 | 0.992 | 0.926 | 0.933 | 0.92 |
| AUUAUCCUGGGCAUCGAGUGA [Fam2.1 aminoacylation ribozyme variant] | 36.3 | 3.07 | 5.87 | 2.94 | 6.24 | 6.86 |
| AUUCACCUAGGUAAUUGGGUG [Fam2.2 aminoacylation ribozyme variant] | 32.1 | 2.94 | 4.54 | 2.63 | 6.35 | 4.01 |
| CUACUUAAAACCAUCGGUCUG [Fam1A.1 aminoacylation ribozyme variant] | 1.22 | 0.927 | 1.1 | 0.923 | 0.846 | 1.36 |
| AUUACCCUGGUCACGGAGUGA [Fam2.1 aminoacylation ribozyme variant] | 37.5 | 3.43 | 7.34 | 3.92 | 7.68 | 8.54 |
| GCACCCUUCAAGCAAUCGGUC [Fam1B.1 aminoacylation ribozyme variant] | 4.04 | 1.32 | 1.22 | 1.47 | 1.45 | 4.63 |
| CUACUUCAAACUAUCGGUAUG [Fam1A.1 aminoacylation ribozyme variant] | 0.842 | 0.715 | 0.557 | 0.813 | 0.601 | 0.665 |
| AUUCACCUAGGUCAACGGGGG [Fam2.2 aminoacylation ribozyme variant] | 12.7 | 1.75 | 1.83 | 1.84 | 2.19 | 2.31 |
| AUUCACCUAGGUCAUCAGGAG [Fam2.2 aminoacylation ribozyme variant] | 0.931 | 0.957 | 0.951 | 1.09 | 1.01 | 0.779 |
| UUUCACCUAGGUCAUCGUGUG [Fam2.2 aminoacylation ribozyme variant] | 4.69 | 1.19 | 1.43 | 1.27 | 1.19 | 1.34 |
| AUUCACCUCGGUCAGCGGGUG [Fam2.2 aminoacylation ribozyme variant] | 28.3 | 3.13 | 4.51 | 3.37 | 5.84 | 4.8 |
| AUUACCCUGGUAAUCAAGUGA [Fam2.1 aminoacylation ribozyme variant] | 16.1 | 1.71 | 3.27 | 1.73 | 3.14 | 3.48 |
| CGACACUACAAGCAAUCGGUC [Fam1B.1 aminoacylation ribozyme variant] | 0.638 | 0.935 | 0.769 | 1 | 0.755 | 0.675 |
| AUUACCGUGGUCAACGAGUGA [Fam2.1 aminoacylation ribozyme variant] | 36.7 | 3.61 | 6.41 | 4.21 | 7.25 | 9.2 |
